This passage reports protein production results from a protein production outcome set (Wang et al. 2014).

This data set is described as follows: label from the status in PepcDB records.
Turning to “VILKKIFIALIALVVIINTVSFTAVSASTPTWLEQTMNSNEPFIKEIEKETGKTRANITQTDLEAITALRVTGASDIPTNIDMLTHLTTLEVKSGTLSSVSNSVGNLKELKILVLNDNNLSTFPTIVFQLPKLEELQVSGGTIEEIPATITNMASHLKFLGILNNHLVKVPDAIFTTNWTNATGGDLDLMAAGNQIVTNIPANYISQFNNGNNLLEFYDNNYQKQDQLTTTPGYTIDVPVGTDFNQLTPDKTKLALTSGRTLLAQHEFEYYDDGSSSLIHNGVAAAPGQATIFIKSKFSTQSNKFARTQVTVNIIALNGGPITVKHEDTKGQELAPPVILNGKDGDPYTTTQKTFPGYTLVATPANQNGTFTMNPATVNYVYSANDYKLTSTFKDAQGQELKAPVVDTKDYHIQDNYTTTAATIPGYSLVSTPANQNGTFGAGNVTVNYVYKKDDYTLTSTYKDTNGQELKAPVVDATTYHYQDTYTTTAAVFPGYTLVATPTNATGTFGSSNITVNYVYQANGYQLTSTFKDQQGKTIAPDDVDAKTYHVNDPYTTTAKTIPGYTLVTTPANNQGNFGTSDITVDYVYKAEDYTLTSTYKDAQGKELKQPVVDSKKYHIQDNYSTSAAAIPGYTLVATPANETGTFHTSDVTVNYVYKLTDLKLTSTYKDAQGTELKAPVVDSKTYHIQDNYATTAAVIPGYTLVATPANQSGTFGSTDIQVNYVYQAVAYKLTSTYKDQQGNDLALPKVDTKTYHIQDGYTTSDIAIPGYTLVAAPTNQTGTFGASDVTVNYVYKANDYTLTSTYKDAQGKELKTPVIDSQKYHINDTYTTTGATIPGYTLVAAPANQSGTFGAANVTVNYVYKADDYTLTSTYKDANGKELKAPVVDSKTYHTKDNYSTSAATIPGYTLVAVPANQTGTFNTSNVTVNYVYKANEYTLTSTFKNVQGTELKPAIVKKGFIIKDGYATSGVTIPGYTLVATPSNKKGTFGASNVTVNYVYKANGYALITTYKDTQGKDLKPLAIDTKIYNINDPYTATALNIPGYTLTTTPANEKGVFGASDETVNYVYKANDYTLTTTYKDANGKELQAPKVDAKTYHIQDTYKTTAAVIPGYTLVATPKNDQGAFGANNVTVNYVYQTNDYTLTSTFKDAQGNELKAADVDAQKYHIHDTYTSKAAVIPGYTLEKTPTNETGTFNASDIQVNYVYKANDYQLTSTFKDQQGNEIALPTVDAKTYHIHDAYTTKARLIPGYSLVAAPKNQIGAFGTSDVTVNYVYKKDAIIKPITPAKPTILTIKTPASKVIKTKVVKQTLPKTGDDDAGLLNLLRLIGLVLILGVFLAVGSKKLR”, the protein production entry was “failed”. In the case of “MFYRLLFASLWYILPAYVANASACIFGGGTPVDLGKNFIDGRRLIGNGVTYRGCIFGILCGTLVGLIQGILVDFNIFNSLDFYGTVLDHVILAFFLSVGAIVGDAVGSFIKRRLNIERGKPAPLLDQLDFVIGALAFGYIVAPIPYEMIIIICLFTVFVHLLGNIIAYKLGIKDVWW” it was “failed”. Next, “MNKLLLVAAGGAVGSVARYLVGVGAMRVMGPGWPYGTFTVNVVGGFLMGCLASWLAHRGNTSSETWRVMLGVGVLGGFTTFSSFSLETALMIQKRAYGQAFTYSAASVLLAIAALFAGLLVARKVFA”: “failed”. On to “MKLIKTIDAVGQVLCHDITQIIPGEFKGRKFKKGHIVKEEDIPVLLSLGKDNLYVWEKSEGMVHENEGALFLKELTAGENLDFSEIKEGKIDFIAACDGLLKIDVDALFDLNCVGEIMMATLHNNFIVNKGLKVAGTRVIPLVIDEKKLEDAKKVVGNRKIVNVVPFKPKKVGIVTTGNEVFYSRIVDKFGPVIEEKVKGFGCEVIGQTICPDDKEIIKSAIKEFISQGAELICCTGGMSVDPDDVTPTAIKETGADLVTYGSPILPGAMFLLAYYGEVPIMGIPGCAMYHKTTVFDIVLSRVLIDEKLDKYDIARYGHGGLCMNCDVCTYPACNFAKILEHHHHHH”, for which the protein production result is “failed”.

“MHPTIARMQEVVAKGDESLIHALLAEDVRFMPPTYYKTWTGRDPVAAVLGHVGQVFSEFRYRRIMGEGKDWALEFQCKVGELDAVGVDLITLNEGGLIQDFEVVMRPYKTVGALRDAMNARVMTDARFLKYREALS”: the protein production result is “not failed”. Next, “MYLPTHFKQENQAELFDLIEHHPLGTLIVMHADGLEVNHIPFELDRLHLPAGILRGHIAKANPLASLLSEPQSAYVIFQAEQHYISPNWYPGKQEHHRVVPTWNYRVVHATGQLSVIEDQKYLRGVLARLTRQHEADQPAPWRLSDAPADFIEQQLEKIMAIEFNIESIIGKFKLSQN”: “failed”. In the case of “MNLKQISAIIIVKNAKQTLLECLNSLKDFDEIILLNNESSDNTLNIANEFKKDFANLHIYHSAFIGFGALKNLALSYAKNDWILSIDADEVLENECIKELKNLELQEDNIIALSRKNLYKGEWIKACGWWPDYVWRIFNKNFTRFNDNLVHESLVLPSNAKKIYLKNGLRHYAFRDISHLIDKMQYYSSLWAKQNIHKKSGVLKANLRAFWTFFRNYFLKNGFLYGYKGFIISVCNALGTFFKYMKLYELQKQKPKTCALIITTYNQKERLKLVLDSVKNLAFLPNEVLIADDGSKEDTARLIEEYQKDFPCPLKHIWQEDEGFRAAKSRNNAIKASKSEYIILIDGDMILEKDFVKNHLEFAKRKVILQGSRVILNKNESEEILKNNNYSLAFNKKGFKNQRSIFLAKCVYKFSKLTKKFFKKSQLVKGSKTCNMSFYKSDFEAIEGFNEKFIGWGREDSEFVARFLFNDGVFKRLKFNALAYHIYHEENSKNMLEINHQIYLETIKNEKTTWRLEHHHHHH” it was “failed”. “MTSAQAVSEGTGEAAAQAISLRTWVAVLGSVVGCFMAGMNVHVTNASLPDVRGSLGATFEEGSWITTAYLVAEIIIIPMTGWLVSVFSMRRVLMVGTAGFVLFSIACSLAPNIHSLIFARVLQGAFGGVLIPLSFQLIVTELPAARHPMGMALFAVANNVAQAAGPSLGGWLTDAYSWRWIFYLQVPPGLLLLAAIGWSVRPQPMVLAKLRQGDWGGIASMAVGLSALQIMLEEGGRYDWFASSFISHCAILATVGLLAFVAIELRREQPLINLRLLGRYNFGIASLMQFTFGAVVFGVVFLVPNYFAQIHGYNARQIGLMMIPYGLIQFVMSFATPRLMRWTSARTIIIAGFAITGIGCLMNIHLNPDASVNVIVPSLVVRGIGQSLVVVALGVMAIQGLEKDQVGSASGLFSMVRNVGGAIGIALSSQIVVEREKLHAQRIGESVSLFAQATQERLVELVRLLAQAPVEYATALHSAALAPLRQQALGMVDKVLHRDALLLAYSDAFLLAGLAMLLCVVAGVLLRRA”: the protein production entry was “failed”.

Turning to “MASSTDQNLMDLSDKDTREKLSFWDRRVDPMAPLTDRQTDSILELRAAAEETLLPAELPIEDICSLSSRSLRSSFTAALPESTEEVLLQGFQMLELHNHRIETAQQFFSWFSKLQVQMDQDEASKYRKTRDVLNGYQEQCDAILNDVNTALDHLDSLQKQYLFVSTKTGTLHEACEQLLKEQSELVDLAESIQEKLSYFNELENINTKLNSPTLSVNSEGFVPMLSKLDECIEYVSSHPNFKDYPVYLTKFKQCLSKAMQLIKSHTVNTLQNLTGQLSKRDPLGAPSA”, the protein production entry was “failed”. For “MTIYNQAIESYDEKMAKDVIMLAGRILLESGAEGSRVEDTMTRIAITLGHKESNSFVTNTVINFMLHDESYPRMYRIRTRDTNLHRISRTNGISRRLALGDISLEDAFQELQKIYQEQSIKNHYLFYKFIAAAVISVSFLYLQGGHLTDVLTALLAGSFGYIVVEILQQKLHAQFIPEFMGALVIGLVTIIGHNLIPGGSISTIIIAAVMPIVPGVLITNAIQDLFGGHMLMFTTKSLEALVTAFGIGAGVSTVLIIF”, the protein production entry is reported as “failed”. In the case of “EIILANISDTVFVTDLSGKFTFICSNIDNIFGYSLAEVNAMGTVETLLGDFRFNEYELKEKGELKNLRHDVQDKQGKIHYLLINLKKVAINGGIYLYSCRDISE” it was “failed”; in that of “MPSPVLIAIDASPASSTLLTLARRYCRPGEHELHVLLAIDSTFAVHEQPAPYTAEELEEYPAACQEQQHADHAVAEAVRELQQAGFASQGCMVAGLPVEAIVTKAQELNCELIIMGHRHLSRLGRLLDPSISAKVIDRVDMPVLV”, “failed”.

Regarding “MTKIACVIVTYNRKQLLEEALNSVLIQTESPEYVFVIDNASTDGTEKYINDKFNFDNRQWHYVRCSQNLGGSAGFAQGMRLALQTDCSWISISDDDAIFEPGYFAALRKGIKQYPEQSVFSGSVLLPDGKHDMMHREVITNSATLTVRCVTDETYKHDFSYDIFSFVGILLSRQVIEAIGLPEQDYFIRFDDFEYAVRALKFGRFMNLSALEHHHHHH”, the protein production entry is “failed”.

For the sequence “MRDFLKLLKKHDELKIIDTPLEVDLEIAHLAYIEAKKPNGGKALLFTQPIRKEHDQIKTFGMPVLMNAFGSFKRLDLLLKTPIESLQQRMQAFLHFNAPKNFTEGLKVLKDLWDLRHIFPKKTTRPKDLIIKQDKEVNLLDLPVLKTWEKDGGAFITMGQVYTQSLDHQKKNLGMYRLQVYDKNHLGLHWQIHKDSQLFFHEYAKAKVKMPVSIAIGGDLLYTWCATAPLPYGIYELMLYGFMRGKKARVMPCLSNSLSVPSDCDIVIEGFVDCEKLELEGPFGDHTGYYTPIEPYPVLEVKTISYKKDSIYLATVVGKPPLEDKYMGYLTERLFLPLLQMNAPNLIEYYMPENGVFHNLILAKIHTRYNAHAKQVMHAFWGVGQMSFVKHAIFVNEDAPNLRDTNAIIEYILENFSKENALISQGVCDALDHASPEYAMGGKLGIDATSKSNTPYPTLLNDSALLALLQDKMQNIVLLKQYYPHTRNPICVISVEKKDKSVIELAKNLLGFEEHLRIVIFVEHASNDLNNPYMLLWRIVNNIDARRDILTSKHCFFIDATNKGVMDKHFREWPTETNCSMEVIENLKKKGLLKDFETLNQKFHLTHSFSTHKEDL”, the protein production entry is given as “failed”. Next, “MKVFTEKIPNIPWEERPEGYTGPVWRYSKNPIIGRNPVPKGARVFNSAVVPYNGEFVGVFRIDHKNTRPFLHFGRSKDGINWEIEPEEIQWVDVNGEPFQPSYAYDPRVVKIEDTYYITFCTDDHGPTIGVGMTKDFKTFVRLPNAYVPFNRNGVLFPRKINGKYVMLNRPSDNGHTPFGDIFLSESPDMIHWGNHRFVLGRSSYNWWENLKIGAGPYPIETSEGWLLIYHGVTLTCNGYVYSFGAALLDLDDPSKVLYRSRYYLLTPEEEYETVGFVPNVVFPCAALCDADTGRVAIYYGAADTHVALAFGYIDEIVDFVKRNSM”: “not failed”. In the case of “MDGGFVRVCLLASGSKGNSLFVESDGTRVLIDAGLSAREIVRRLAVIEVEPADLDGLFISHEHVDHVRGVGVLARKYRLPVHVSYPTHHEVREGFGDAPVVEFESGYSFGFRDLLIDPFPITHDACDPVGFTIESKEGKVGIATDLGTATRLVADKLKRCRVLVLESNHDEEMLMGGPYPWHLKQRIKSRHGHLSNNDSAALLAEVLHPGLEGLFLAHLSEVNNDPAVAKEVAENLLVAQTTCSPRLIVGDQYRPSETLTL” it was “failed”; in that of “MVQMNNFLFDAQNIATPLMLVDLDDTLFQTHRRIVPQTDFKMVTTDKQGQALAYMNPIQQHFVQWLLHSTHLIPVTARSAEALSRVHLPFQYGAVCSHGGTVLNPDFSVNVDWHVQMQQALTSYQERQQILIDALQQQAINFGSIRTWVVEEQGLGLYIVAKQNTENDNPYAPNFLPELLNSLSSEVLEGFYFHLNGNNLALIPQPVSKANAARFVLQQFASQQRPILGFGDSLSDVEFLNLCHWWGMPNHSQLNRWVKHNLTQQYKQEGFYGDYQ”, “failed”.

“MRSATDLLDELNAVDESARIEAKRASDMGKSVMETVIAFANEPGLDGGYLLLGVDWAINDKGDTVYRPVGLPDPDKVQRDLASQCASMLNVALRPEMQLEQVGGKTLLVVYVPEADVTHKPIYKKATGLPGGAYRRIGSSDQRCVDEDLWVLRGLEHHHHHH”: the protein production result was “not failed”.
